This passage reports stoichiometry N results from article PMC5366329.

In assay [1] the target is N-terminal 6xHis-tagged HsCPAP^897−1338 (human) (UniProt Q9HC77). In words: SEC + other: negative-stain electron microscopy (single particle, 3D map); SEC (Superdex 200 10/300) fraction at an apparent MW of ~108 kDa, buffer H-300 (300 mM NaCl), 4°C; toroidal particles, 20 Å map from 4,587 particles; monomers to putative dimer.
The target is the same in assay [2]. In words: SEC + other: negative-stain electron microscopy (single particle, 3D map); SEC (Superdex 200 10/300) peak fraction at an apparent MW of ~208 kDa, buffer H-300 (300 mM NaCl), 4°C; barrel-like particles, 23 Å map; putative tetramer (dimer of dimers).

What is called stoichiometry N is the number of molecules, sites or subunits per partner or assembly. Take “N-terminal 6xHis-tagged HsCPAP^897−1338 (from UniProt Q9HC77 897-1338) (domain or fragment)”: the stoichiometry N in assay [1] stood at 2; in assay [2], 4.
